T1: miR2-FL-WT-FLAG (mouse, UniProt Q80WQ6 1-827)
T1 construct: on MEF-DKO cells
T1 sequence: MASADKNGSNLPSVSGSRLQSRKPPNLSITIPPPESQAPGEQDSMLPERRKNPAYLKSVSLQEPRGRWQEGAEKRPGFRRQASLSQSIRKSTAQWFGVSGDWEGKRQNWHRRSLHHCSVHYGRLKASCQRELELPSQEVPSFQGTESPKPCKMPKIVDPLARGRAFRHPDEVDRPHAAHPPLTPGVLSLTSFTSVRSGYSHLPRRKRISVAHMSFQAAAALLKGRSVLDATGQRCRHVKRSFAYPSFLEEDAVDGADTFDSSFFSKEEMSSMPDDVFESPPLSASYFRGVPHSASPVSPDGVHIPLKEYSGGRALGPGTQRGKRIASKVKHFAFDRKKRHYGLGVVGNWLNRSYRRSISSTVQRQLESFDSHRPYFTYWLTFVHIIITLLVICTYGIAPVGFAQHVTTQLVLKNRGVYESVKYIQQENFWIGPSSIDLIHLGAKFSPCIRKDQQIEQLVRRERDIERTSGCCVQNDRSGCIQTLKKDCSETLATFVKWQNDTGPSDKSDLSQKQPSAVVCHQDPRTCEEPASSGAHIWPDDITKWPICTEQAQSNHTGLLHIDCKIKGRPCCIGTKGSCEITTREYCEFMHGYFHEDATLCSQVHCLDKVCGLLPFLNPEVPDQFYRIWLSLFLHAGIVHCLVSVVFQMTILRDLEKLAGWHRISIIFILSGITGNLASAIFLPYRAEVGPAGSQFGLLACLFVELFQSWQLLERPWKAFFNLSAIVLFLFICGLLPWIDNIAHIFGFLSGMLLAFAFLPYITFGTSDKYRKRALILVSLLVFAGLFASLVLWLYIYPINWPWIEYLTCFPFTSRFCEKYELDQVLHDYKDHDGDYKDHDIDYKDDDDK

T2: hiR2-FL-K536A-T7 (human, UniProt Q6PJF5 1-856)
T2 construct: on MEF-DKO cells
T2 sequence: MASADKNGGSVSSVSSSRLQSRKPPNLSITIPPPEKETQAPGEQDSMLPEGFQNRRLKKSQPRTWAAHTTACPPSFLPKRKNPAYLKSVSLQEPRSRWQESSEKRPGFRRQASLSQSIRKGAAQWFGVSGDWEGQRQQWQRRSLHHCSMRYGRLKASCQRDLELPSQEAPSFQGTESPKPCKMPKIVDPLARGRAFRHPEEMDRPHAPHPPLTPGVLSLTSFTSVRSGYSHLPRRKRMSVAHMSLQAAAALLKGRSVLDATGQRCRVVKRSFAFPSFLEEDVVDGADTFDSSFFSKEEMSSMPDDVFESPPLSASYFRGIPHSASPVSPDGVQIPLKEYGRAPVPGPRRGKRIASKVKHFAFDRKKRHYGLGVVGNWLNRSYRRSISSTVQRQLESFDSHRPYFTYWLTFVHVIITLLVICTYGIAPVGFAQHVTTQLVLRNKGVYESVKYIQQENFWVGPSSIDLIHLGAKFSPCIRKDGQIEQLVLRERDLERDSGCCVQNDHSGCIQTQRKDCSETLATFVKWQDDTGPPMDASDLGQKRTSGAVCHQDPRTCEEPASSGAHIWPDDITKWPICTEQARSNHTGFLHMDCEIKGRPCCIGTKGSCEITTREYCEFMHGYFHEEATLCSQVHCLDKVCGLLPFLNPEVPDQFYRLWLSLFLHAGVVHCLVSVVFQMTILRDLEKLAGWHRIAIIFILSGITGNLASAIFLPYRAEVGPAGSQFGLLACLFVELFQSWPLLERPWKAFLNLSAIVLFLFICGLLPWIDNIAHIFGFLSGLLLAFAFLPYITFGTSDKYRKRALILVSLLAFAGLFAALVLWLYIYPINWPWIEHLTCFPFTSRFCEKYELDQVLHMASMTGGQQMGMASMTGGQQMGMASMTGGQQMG

B1: antibody 3 (antibody, V domains shown)
VH: QVTLKESGPGILQPSQTLSLTCSFSGFSLTTFAMGIGWVRQPSGKGLEWLAHIWWDGEKYNNPVLKSRLTISKDTSKNQVFLRIANVDTPDTATYYCARISSIYYIIDNWGQGTSVTVSS
VL: DIVLTQSPATLSVTPGHSVSLSCRASQSISNNLHWYQKKSHESPRLLIKYVSQSISGIPSRFSGSGSGTDFTLSINSVETEDFGMYFCQQSYNWPLTFGAGTKLELK
notes: mouse IgG, kappa light chain; also called clone #3; purified antibody 3
B2: antibody 5 (antibody, V domains shown)
VH: QVTLKESGPGILQPSQTLSLTCSFSGFSLSTFGMGVGWIRQPSGKGLEWLAHIWWDDEKYYNSALKSRLTISKATSKNQAFLKIANVDTADTATYYCARISNYGSNYWYFNVWGTGTTVTVSS
VL: QVVLTQSPALMSASPGEKVTMTCSAGSSVSCMYWYQQKPGSSPRVLIYDTSNLASGVPARFTGSGSGTSYSLTISRMEAEDAASYYCQQWNSYPLTFGAGTKLELK
notes: mouse IgG, kappa light chain; also called clone #5; purified antibody 5

Columns and labels:
miR2-FL-WT-FLAG = target: T1, miR2-FL-WT-FLAG; assay: FACS on MEF-DKO-miR2-FL-WT-FLAG cells
hiR2-FL-K536A-T7 = target: T2, hiR2-FL-K536A-T7; assay: FACS on MEF-DKO-hiR2-FL-K536A-T7 cells

Row | Binder | binding result (miR2-FL-WT-FLAG) | binding result (hiR2-FL-K536A-T7)
1 | B1 | no binding (tested: 3 µg/ml) | –
2 | B2 | – | no binding (tested: 3 µg/ml)

Source: patent publication US20240287172A1 (SCIRHOM, published 2024)
